The values below come from article PMC10548113, “Modeling a variant of unknown significance in the Drosophila ortholog of the human cardiogenic gene NKX2.5”.

Numbering of substitutions follows the chain as printed.

One data set addresses T1, MBP-Tin R321N HD (Drosophila melanogaster, UniProt P22711 301-360, R321N).
T1 sequence: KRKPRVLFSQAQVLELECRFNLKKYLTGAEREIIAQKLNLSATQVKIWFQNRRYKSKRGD
The experiment in a line: EMSA; 1.5 ug protein, equal to WT; EMSA: 40 mM KCl, 15 mM HEPES pH 7.9, 1 mM EDTA, 0.5 mM DTT, 5% glycerol, 4 ug poly-dIdC; temperature not stated. The note with it: protein: recombinant; tags: N-terminal MBP; label: radioactive (probe); only one strand given. (Mobility shift assays separate free from complexed probe on a gel.)

The next data set addresses T2, MBP-Tin HD (WT) (Drosophila melanogaster, UniProt P22711 301-360).
T2 sequence: T1 sequence with N21R
As to the kind of experiment: EMSA; 1.5 ug protein; competed by 300-fold excess unlabelled WT; EMSA: 40 mM KCl, 15 mM HEPES pH 7.9, 1 mM EDTA, 0.5 mM DTT, 5% glycerol, 4 ug poly-dIdC; temperature not stated. The note with it: protein: recombinant; tags: N-terminal MBP; label: radioactive (probe); only one strand given.

B1: Mp Tin1 site (dsDNA)
DNA 1: GGACTCTTTGGCTGAAGTGTCCGGTGAAA
DNA 2: TTTCACCGGACACTTCAGCCAAAGAGTCC
Consider B1, for which the binding signal with MBP-Tin R321N HD is 7 % of WT band intensity. Further, in the data set with MBP-Tin HD (WT), the binding result is given as “binds”.
